Laboratory results: the Immune Epitope Database (IEDB)

Columns and labels:
HLA-A*26:01 = experiment: IEDB peptide-MHC binding, purified MHC/competitive/radioactivity; filed as Kd, often an IC50 or EC50 that approximates it; ≥ and ≤ were set here for values at or beyond the usual limits of such assays
HLA-B*53:01 = experiment: as above
HLA-B*44:02 = experiment: as above
HLA-B*44:03 = experiment: as above
HLA-A*32:01 = experiment: as above
HLA-A*01:01 = experiment: as above
HLA-A*24:02 = experiment: as above
HLA-A*23:01 = experiment: as above
HLA-A*29:02 = experiment: as above
HLA-A*30:02 = experiment: as above
HLA-A*02:06 = experiment: as above; details: source organism: Vaccinia virus WR
HLA-A*02:02 = experiment: as above; details: source organism: Vaccinia virus WR
HLA-A*02:03 = experiment: as above; details: source organism: Vaccinia virus WR
HLA-B*40:01 = experiment: IEDB peptide-MHC binding, purified MHC/direct/fluorescence; filed as Kd, often an IC50 or EC50 that approximates it; ≥ and ≤ were set here for values at or beyond the usual limits of such assays; details: source organism: Mycobacterium tuberculosis variant bovis
[1] = source organism: Dengue virus 3 Martinique/1243/1999
[2] = source organism: Dengue virus 4 Philippines/H241/1956
[3] = source organism: Dengue virus 1 Brazil/97-11/1997
[4] = source organism: Vaccinia virus WR
[5] = source organism: Dengue virus 2 Jamaica/1409/1983
[6] = source organism: Dengue virus 2 Peru/IQT2913/1996
[7] = source organism: Mammarenavirus lassaense
[8] = source organism: SARS coronavirus Tor2
[9] = source organism: Mammarenavirus machupoense
[10] = source organism: Mammarenavirus guanaritoense
[11] = source organism: Lymphocytic choriomeningitis virus (strain Armstrong)

CVIASSGMLW showed a Kd (HLA-A*26:01; [1]) of 1220 nM and a Kd (HLA-B*53:01; [1]) of 22.2 nM.

For IEKTKTDFGF, the Kd (HLA-B*44:02; [2]) was 1730 nM.

Sequence MEHKYSWKSW has a Kd (HLA-B*44:03; [3]) of 137 nM, a Kd (HLA-B*44:02; [3]) of 11.2 nM and a Kd (HLA-A*32:01; [3]) of 2040 nM.

In the case of NVAYGAVSF, the Kd (HLA-A*32:01; [4]) is reported as 136 nM.

For LPMTVAAMG, the Kd (HLA-B*53:01; source organism: Dengue virus 3 Sri Lanka/1266/2000) was 3540 nM.

AEAIFKLTY gave a Kd (HLA-B*44:03; [5]) of 34.7 nM and a Kd (HLA-B*44:02; [5]) of 3.67 nM.

For TVMAFHLTT, the Kd (HLA-A*32:01; [6]) was 19200 nM.

KLFYVYYNL was tested, and the Kd (HLA-A*32:01; [4]) was 0.344 nM.

NELNYILWE showed a Kd (HLA-B*44:03; [1]) of 270 nM.

For KTTAKEVAL, the Kd (HLA-A*32:01; [2]) was no less than 21100 nM.

For LTGTFVTAF, the Kd (HLA-A*32:01; [4]) was 8.81 nM.

RTYGVNYTF was tested, and the Kd (HLA-A*32:01; [4]) was 0.261 nM.

GSAKLRWFVE was tested, and the Kd (HLA-A*32:01; [5]) was no less than 22200 nM.

For YFESYVRPFV, the Kd (HLA-A*01:01; [7]) was no less than 70400 nM, the Kd (HLA-A*24:02; [7]) was 12800 nM and the Kd (HLA-A*26:01; [7]) was no less than 46100 nM. For the same sequence, the Kd (HLA-A*23:01; [7]) was 1890 nM, the Kd (HLA-A*29:02; [7]) was 3940 nM and the Kd (HLA-A*30:02; [7]) was 4250 nM.

With VEPGQLKLNW the Kd (HLA-B*44:03; [5]) was 63.2 nM and the Kd (HLA-B*44:02; [5]) was 389 nM.

Sequence ITLVVISVI has a Kd (HLA-A*02:06) of 1030 nM, a Kd (HLA-A*32:01; [4]) of no less than 35300 nM and a Kd (HLA-A*02:02) of 15100 nM. For the same sequence, the Kd (HLA-A*02:03) was 1810 nM.

Sequence VFYLYLTFYF has a Kd (HLA-A*01:01; [8]) of 566 nM, a Kd (HLA-A*24:02; [8]) of 0.0798 nM and a Kd (HLA-A*26:01; [8]) of 621 nM. The Kd (HLA-A*23:01; [8]) was 0.0611 nM, the Kd (HLA-A*29:02; [8]) was 0.0415 nM and the Kd (HLA-A*30:02; [8]) was 12400 nM.

Work on RHLIFSYAF yielded a Kd (HLA-A*32:01; [4]) of 13.6 nM.

Sequence AELEDGAYRI has a Kd (HLA-B*44:03; [5]) of 17.9 nM and a Kd (HLA-B*44:02; [5]) of 16 nM.

NESDPEGALW was tested, and the Kd (HLA-B*44:03; [3]) was 134 nM and the Kd (HLA-B*44:02; [3]) was 26.6 nM.

In the case of MFSPIVPFW, the Kd (HLA-A*01:01; [8]) is reported as no less than 78100 nM, the Kd (HLA-A*24:02; [8]) is reported as 111 nM and the Kd (HLA-A*26:01; [8]) is reported as no less than 77900 nM. It also gave a Kd (HLA-A*23:01; [8]) of 29.2 nM, a Kd (HLA-A*29:02; [8]) of 95.1 nM and a Kd (HLA-A*30:02; [8]) of no less than 30300 nM.

For EEREIPERSW, the Kd (HLA-B*44:03; [5]) was 242 nM and the Kd (HLA-B*44:02; [5]) was 66.5 nM.

With ADSGCVINW the Kd (HLA-B*44:02; [3]) was 70.7 nM.

In the case of QILLMRTTW, the Kd (HLA-A*32:01; [3]) is reported as 22 nM.

In the case of QILASILSI, the Kd (HLA-A*32:01; [4]) is reported as 22.1 nM.

In the case of MGEDGCWYGM, the Kd (HLA-A*32:01; [1]) is reported as no less than 36400 nM.

GYVVSNFEGV was tested, and the Kd (HLA-A*01:01; [9]) was no less than 70400 nM, the Kd (HLA-A*24:02; [9]) was no less than 70300 nM and the Kd (HLA-A*26:01; [9]) was no less than 69700 nM. For the same sequence, the Kd (HLA-A*23:01; [9]) was no less than 70000 nM, the Kd (HLA-A*29:02; [9]) was no less than 70800 nM and the Kd (HLA-A*30:02; [9]) was no less than 69700 nM.

LYDANYFVCW gave a Kd (HLA-A*01:01; [8]) of 1130 nM, a Kd (HLA-A*24:02; [8]) of 55.4 nM and a Kd (HLA-A*26:01; [8]) of 9640 nM. For the same sequence, the Kd (HLA-A*23:01; [8]) was 24.5 nM, the Kd (HLA-A*29:02; [8]) was 1440 nM and the Kd (HLA-A*30:02; [8]) was 13400 nM.

EEPVPMSTY showed a Kd (HLA-B*44:02; [1]) of 360 nM.

LALREFKEF was tested, and the Kd (HLA-B*53:01; [3]) was 1730 nM.

Work on LVAEMDGIQY yielded a Kd (HLA-A*01:01; [8]) of 246 nM, a Kd (HLA-A*24:02; [8]) of no less than 70300 nM and a Kd (HLA-A*26:01; [8]) of 346 nM. It also gave a Kd (HLA-A*23:01; [8]) of no less than 70000 nM, a Kd (HLA-A*29:02; [8]) of 103 nM and a Kd (HLA-A*30:02; [8]) of 102 nM.

TPEGIIPSMF gave a Kd (HLA-B*53:01; [5]) of 417 nM.

With RTFLIDLAF the Kd (HLA-A*32:01; [4]) was 0.48 nM.

Work on NEGIMAIGI yielded a Kd (HLA-B*44:03; [3]) of 109 nM and a Kd (HLA-B*44:02; [3]) of 18.8 nM.

For HFAIGLALY, the Kd (HLA-A*01:01; [8]) was no less than 119000 nM, the Kd (HLA-A*24:02; [8]) was 11100 nM and the Kd (HLA-A*26:01; [8]) was 240 nM. It also gave a Kd (HLA-A*23:01; [8]) of 11500 nM, a Kd (HLA-A*29:02; [8]) of 4.71 nM and a Kd (HLA-A*30:02; [8]) of 13.2 nM.

In the case of YVQRFFLRV, the Kd (HLA-A*01:01; [10]) is reported as 1020 nM, the Kd (HLA-A*24:02; [10]) is reported as no less than 26600 nM and the Kd (HLA-A*26:01; [10]) is reported as no less than 77900 nM. The Kd (HLA-A*23:01; [10]) was 4270 nM, the Kd (HLA-A*29:02; [10]) was 767 nM and the Kd (HLA-A*30:02; [10]) was 732 nM.

Work on VMPLSAPTL yielded a Kd (HLA-A*01:01; [8]) of no less than 78100 nM, a Kd (HLA-A*24:02; [8]) of 13300 nM and a Kd (HLA-A*26:01; [8]) of no less than 77900 nM. It also gave a Kd (HLA-A*23:01; [8]) of 6450 nM, a Kd (HLA-A*29:02; [8]) of 7050 nM and a Kd (HLA-A*30:02; [8]) of no less than 75000 nM.

Work on AVLTGGVTL yielded a Kd (HLA-A*32:01; [3]) of 6690 nM.

AEQIVLGVI showed a Kd (HLA-B*40:01) of 61.1 nM.

PYRVVVLSF was tested, and the Kd (HLA-A*01:01; [8]) was 1480 nM, the Kd (HLA-A*24:02; [8]) was 100 nM and the Kd (HLA-A*26:01; [8]) was 1040 nM. The Kd (HLA-A*23:01; [8]) was 20.8 nM, the Kd (HLA-A*29:02; [8]) was 11500 nM and the Kd (HLA-A*30:02; [8]) was no less than 93800 nM.

With QPTELRYSW the Kd (HLA-B*53:01; [6]) was 52.6 nM.

ISLFYTFAI gave a Kd (HLA-A*32:01; [4]) of 0.567 nM.

CYSSVNDRLV showed a Kd (HLA-A*01:01; [11]) of 11100 nM, a Kd (HLA-A*24:02; [11]) of 1130 nM and a Kd (HLA-A*26:01; [11]) of no less than 69700 nM. The Kd (HLA-A*23:01; [11]) was 1870 nM, the Kd (HLA-A*29:02; [11]) was 13000 nM and the Kd (HLA-A*30:02; [11]) was 3960 nM.
